Experimental data taken from publication PMC7432781, “An EPR Study on the Interaction between the Cu(I) Metal Binding Domains of ATP7B and the Atox1 Metallochaperone” (International Journal of Molecular Sciences, 2020).
*: point of attachment. MTSL = MTSL nitroxide spin label (R1), CC1(C)C=C(CS*)C(C)(C)N1[O]

Target: T1, ATP7B metal binding domains 4-6, spin-labeled (human, UniProt P35670 356-633, MTSL nitroxide spin label (R1) on C358, C431 and C490)
T1 construct: No residue limits are printed; the printed primers translate to a start at GTCSTTL and an end at FHASLAQ followed by a stop codon; Printed mass 29.2 kDa; also called MBD4-6; ATP7B 4-6 domains; source: E. coli Origami 2, purified (chitin bead column, intein self-cleavage with DTT)
T1 sequence (looked up): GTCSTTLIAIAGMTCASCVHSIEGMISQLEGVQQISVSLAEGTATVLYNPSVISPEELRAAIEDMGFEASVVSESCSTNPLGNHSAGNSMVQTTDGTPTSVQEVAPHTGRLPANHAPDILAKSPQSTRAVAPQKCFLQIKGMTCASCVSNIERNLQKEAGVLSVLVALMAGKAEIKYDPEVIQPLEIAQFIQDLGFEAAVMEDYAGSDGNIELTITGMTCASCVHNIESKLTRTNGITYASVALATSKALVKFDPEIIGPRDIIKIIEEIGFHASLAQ
Experiment: CW-EPR of spin-labeled proteins; X-band, room temperature (292 ± 5 K), in solution; Atox1 or sl-Atox1 added to spin-labeled MBDs at 1:1 (Atox1:MBD); with and without Cu(I); spin-labeled protein 0.01-0.03 mM
Conditions: both partners purified

B1: Atox1 metallochaperone, wild-type, non spin-labeled (natural protein, human)
chain: MPKHEFSVDMTCGGCAEAVSRVLNKLGGVKYDIDLPNKKVCIESEHSMDTLLATLKKTGKTVSYLGLE
notes: Atox1 copper metallochaperone, human, wild type
B1: binds.

B2: Atox1 metallochaperone, spin-labeled at C41 (natural protein, human)
chain: MPKHEFSVDMTCGGCAEAVSRVLNKLGGVKYDIDLPNKKVC(MTSL)IESEHSMDTLLATLKKTGKTVSYLGLE
notes: Atox1 copper metallochaperone, human; also called sl-Atox1; spin-labeled Atox1
B2: binds.
